For assay [1], the target named is T1, hGH receptor on hGHR/Luc/HEK293F cells (human, UniProt P10912 19-638).
T1 sequence (looked up): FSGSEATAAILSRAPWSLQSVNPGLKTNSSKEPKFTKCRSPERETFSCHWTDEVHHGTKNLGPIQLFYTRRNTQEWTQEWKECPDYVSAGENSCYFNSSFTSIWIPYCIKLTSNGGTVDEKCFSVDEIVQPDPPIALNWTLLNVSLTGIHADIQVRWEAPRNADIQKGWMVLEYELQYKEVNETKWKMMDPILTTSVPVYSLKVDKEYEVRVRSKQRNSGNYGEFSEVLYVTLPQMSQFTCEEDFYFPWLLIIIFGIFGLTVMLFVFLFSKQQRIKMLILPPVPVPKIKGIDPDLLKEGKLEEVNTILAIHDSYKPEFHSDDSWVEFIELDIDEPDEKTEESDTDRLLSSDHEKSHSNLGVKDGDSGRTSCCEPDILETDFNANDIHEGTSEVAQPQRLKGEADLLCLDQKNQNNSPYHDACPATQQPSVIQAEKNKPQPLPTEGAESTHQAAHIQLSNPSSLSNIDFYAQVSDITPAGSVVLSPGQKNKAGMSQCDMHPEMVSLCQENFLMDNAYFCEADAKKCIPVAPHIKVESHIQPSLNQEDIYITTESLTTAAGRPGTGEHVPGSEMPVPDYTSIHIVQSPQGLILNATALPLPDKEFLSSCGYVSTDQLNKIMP
As to the kind of experiment: cell-based or functional assay.

The target in assay [2] is T2, recombinant hGH receptor Fc chimera (human, UniProt P10912 19-264).
T2 construct: also called hGH receptor chimera; not shown: Fc part of the chimera
T2 sequence (looked up): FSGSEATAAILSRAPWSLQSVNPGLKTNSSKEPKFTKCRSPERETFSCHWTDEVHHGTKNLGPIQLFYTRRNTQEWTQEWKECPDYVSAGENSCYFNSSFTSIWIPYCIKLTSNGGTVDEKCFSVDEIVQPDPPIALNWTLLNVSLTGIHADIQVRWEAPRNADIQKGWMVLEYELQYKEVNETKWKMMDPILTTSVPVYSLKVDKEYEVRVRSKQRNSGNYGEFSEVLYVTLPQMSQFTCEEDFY
As to the kind of experiment: ELISA on plate-coated recombinant hGH receptor Fc chimera, detected with biotinylated anti-hGH polyclonal antibody. On the procedure:
After additional washing step, 3,3',5,5'-tetramethylbenzidine (TMB) was added to each well to allow TMB reaction. Absorbance signals from the reaction were recorded at 450 nm to 650 nm.
In general terms: ELISA stands for enzyme-linked immunosorbent assay.

Pegvisomant (ligand) had a Relative inhibitory potency (relative to Pegvisomant) in assay [1] of 1. In addition, in assay [2], the Relative binding potency (relative to Pegvisomant) was 1.

B1: hGH-A3 (ligand)
chain: FPTIPLSRLFDNAMLRAHRLNQLAFDTYQEFEEAYIPKEQKYSFLQNPQTSLCFSESIPTPSNREETQQKSNLELLRISLLLIQSWLEPVQFLRSVFANSLVYGASDSNVYDLLKDLEEKIQTLMGRLEDGSPRTGQIFKQTYSKFDTNSHNDDALLKNYGLLYCFRKDMDKVSTFLRIVQCRSVEGSCGFEDPQGDAANKTDTSHHDQDHPTFNKITPNLAEFAFSLYRQLAHQSNSTNIFFSPVSIATAFAMLSLGTKADTHDEILEGLNFNLTEIPEAQIHEGFQELLHTLNQPDSQLQLTTGNGLFLSEGLKLVDKFLEDVKKLYHSEAFTVNFGDTEEAKKQINDYVEKGTQGKIVDLVKELDRDTVFALVNYIFFKGKWERPFEVKDTEEEDFHVDQVTTVKVPMMKRLGMFNIQHCKKLSSWVLLMKYLGNATAIFFLPDEGKLQHLENELTHDIITKFLENEDRRSASLHLPKLSITGTYDLKSVLGQLGITKVFSNGADLSGVTEEAPLKLSKAVHKAVLTIDEKGTEAAGAMFLEAINMSIPPEVKFNKPFVFLMIDQNTKSPLFMGKVVNPTQK
notes: also called hGHRA-NexP
As to B1, the Relative inhibitory potency in assay [1] was 0.957 relative to Pegvisomant. In addition, the Relative binding potency in assay [2] is 0.925 relative to Pegvisomant.

B2: hGH-A6 (ligand)
chain: FPTIPLSRLFDNAMLRAHRLNQLAFDTYQEFEEAYIPKEQKYSFLQNPQTSLCPSESIPTPSNKEETQQKSNLELLRISLLLIQSWLEPVQFLRSVFANSLVYGASDSNVYDLLKDLEEKIQTLMGRLEDGSPRTGQIFKQTYSKFDTNSHNDDALLKNYGLLYCFRKDMDKVSTYLRIVQCRSVEGSCGFEDPQGDAANKTDTSHHDQDHPTFNKITPNLAEFAFSLYRQLAHQSNSTNIFFSPVSIATAFAMLSLGTKADTHDEILEGLNFNLTEIPEAQIHEGFQELLHTLNQPDSQLQLTTGNGLFLSEGLKLVDKFLEDVKKLYHSEAFTVNFGDTEEAKKQINDYVEKGTQGKIVDLVKELDRDTVFALVNYIFFKGKWERPFEVKDTEEEDFHVDQVTTVKVPMMKRLGMFNIQHCKKLSSWVLLMKYLGNATAIFFLPDEGKLQHLENELTHDIITKFLENEDRRSASLHLPKLSITGTYDLKSVLGQLGITKVFSNGADLSGVTEEAPLKLSKAVHKAVLTIDEKGTEAAGAMFLEAINMSIPPEVKFNKPFVFLMIDQNTKSPLFMGKVVNPTQK
notes: also called hGHRA-NexP
On to B2, for which, in assay [1], the Relative inhibitory potency is 1.42 relative to Pegvisomant. Besides, the Relative binding potency in assay [2] is 3.37 relative to Pegvisomant.

B3: hGH-A4 (ligand)
chain: FPTIPLSRLFDNAMLRADRLNQLAFDTYQEFEEAYIPKEQKYSFLQNPQTSLCFSESIPTPSNREETQQKSNLELLRISLLLIQSWLEPVQFLRSVFANSLVYGASDSNVYDLLKDLEEKIQTLMGRLEDGSPRTGQIFKQTYSKFDTNSHNDDALLKNYGLLYCFRKDMDKVSTFLRTVQCRSVEGSCGFEDPQGDAANKTDTSHHDQDHPTFNKITPNLAEFAFSLYRQLAHQSNSTNIFFSPVSIATAFAMLSLGTKADTHDEILEGLNFNLTEIPEAQIHEGFQELLHTLNQPDSQLQLTTGNGLFLSEGLKLVDKFLEDVKKLYHSEAFTVNFGDTEEAKKQINDYVEKGTQGKIVDLVKELDRDTVFALVNYIFFKGKWERPFEVKDTEEEDFHVDQVTTVKVPMMKRLGMFNIQHCKKLSSWVLLMKYLGNATAIFFLPDEGKLQHLENELTHDIITKFLENEDRRSASLHLPKLSITGTYDLKSVLGQLGITKVFSNGADLSGVTEEAPLKLSKAVHKAVLTIDEKGTEAAGAMFLEAINMSIPPEVKFNKPFVFLMIDQNTKSPLFMGKVVNPTQK
notes: also called hGHRA-NexP
On to B3, for which the Relative inhibitory potency in assay [1] is 1.22 relative to Pegvisomant. Further, in assay [2], the Relative binding potency is 2.31 relative to Pegvisomant.

B4: hGH-A8 (ligand)
chain: FPTIPLSRLFDNAMLRADRLNQLAFDTYQEFEEAYIPKEQKYSFLQNPQTSLCFSESIPTPSNREETQQKSNLELLRISLLLIQSWLEPVQFLRSVFANSLVYGASDSNVYDLLKDLEEKIQTLMGRLEDGSPRTGQIFKQTYSKFDTNSHNDDALLKNYGLLYCFNADMSRVSTFLRTVQCRSVEGSCGFEDPQGDAANKTDTSHHDQDHPTFNKITPNLAEFAFSLYRQLAHQSNSTNIFFSPVSIATAFAMLSLGTKADTHDEILEGLNFNLTEIPEAQIHEGFQELLHTLNQPDSQLQLTTGNGLFLSEGLKLVDKFLEDVKKLYHSEAFTVNFGDTEEAKKQINDYVEKGTQGKIVDLVKELDRDTVFALVNYIFFKGKWERPFEVKDTEEEDFHVDQVTTVKVPMMKRLGMFNIQHCKKLSSWVLLMKYLGNATAIFFLPDEGKLQHLENELTHDIITKFLENEDRRSASLHLPKLSITGTYDLKSVLGQLGITKVFSNGADLSGVTEEAPLKLSKAVHKAVLTIDEKGTEAAGAMFLEAINMSIPPEVKFNKPFVFLMIDQNTKSPLFMGKVVNPTQK
notes: also called hGHRA-NexP
B4: in assay [1], the Relative inhibitory potency was 1.42 relative to Pegvisomant. Moreover, the Relative binding potency in assay [2] is 4.64 relative to Pegvisomant.

B5: hGH-A7 (ligand)
chain: FPTIPLSRLFDNAMLRAHRLNQLAFDTYQEFEEAYIPKEQKYSFLQNPQTSLCPSESIPTPSNKEETQQKSNLELLRISLLLIQSWLEPVQFLRSVFANSLVYGASDSNVYDLLKDLEEKIQTLMGRLEDGSPRTGQIFKQTYSKFDTNSHNDDALLKNYGLLYCFNKDMSKVSTYLRIVQCRSVEGSCGFEDPQGDAANKTDTSHHDQDHPTFNKITPNLAEFAFSLYRQLAHQSNSTNIFFSPVSIATAFAMLSLGTKADTHDEILEGLNFNLTEIPEAQIHEGFQELLHTLNQPDSQLQLTTGNGLFLSEGLKLVDKFLEDVKKLYHSEAFTVNFGDTEEAKKQINDYVEKGTQGKIVDLVKELDRDTVFALVNYIFFKGKWERPFEVKDTEEEDFHVDQVTTVKVPMMKRLGMFNIQHCKKLSSWVLLMKYLGNATAIFFLPDEGKLQHLENELTHDIITKFLENEDRRSASLHLPKLSITGTYDLKSVLGQLGITKVFSNGADLSGVTEEAPLKLSKAVHKAVLTIDEKGTEAAGAMFLEAINMSIPPEVKFNKPFVFLMIDQNTKSPLFMGKVVNPTQK
notes: also called hGHRA-NexP
B5: the Relative inhibitory potency in assay [1] was 1.84 relative to Pegvisomant. Besides, in assay [2], the Relative binding potency was 4.73 relative to Pegvisomant.

B6: hGH-A9 (ligand)
chain: FPTIPLSRLFDNAMLRADRLNQLAFDTYQEFEEAYIPKEQKYSFLKNPQTSLCFSESIPTPSNREETQQKSNLELLRISLLLIQSWLEPVQFLRSVFANSLVYGASDSNVYDLLKDLEEKIQTLMGRLEDGSPRTGQIFKQTYSKFDTNSHNDDALLKNYGLLYCFRKDMDKVSTFLRTVQCRSVEGSCGFEDPQGDAANKTDTSHHDQDHPTFNKITPNLAEFAFSLYRQLAHQSNSTNIFFSPVSIATAFAMLSLGTKADTHDEILEGLNFNLTEIPEAQIHEGFQELLHTLNQPDSQLQLTTGNGLFLSEGLKLVDKFLEDVKKLYHSEAFTVNFGDTEEAKKQINDYVEKGTQGKIVDLVKELDRDTVFALVNYIFFKGKWERPFEVKDTEEEDFHVDQVTTVKVPMMKRLGMFNIQHCKKLSSWVLLMKYLGNATAIFFLPDEGKLQHLENELTHDIITKFLENEDRRSASLHLPKLSITGTYDLKSVLGQLGITKVFSNGADLSGVTEEAPLKLSKAVHKAVLTIDEKGTEAAGAMFLEAINMSIPPEVKFNKPFVFLMIDQNTKSPLFMGKVVNPTQK
notes: also called hGHRA-NexP
Turning to B6, in assay [1], the Relative inhibitory potency was 1.89 relative to Pegvisomant. Besides, the Relative binding potency in assay [2] is 4.58 relative to Pegvisomant.

B7: hGH-A10 (ligand)
chain: EDPQGDAANKTDTSHHDQDHPTFNKITPNLAEFAFSLYRQLAHQSNSTNIFFSPVSIATAFAMLSLGTKADTHDEILEGLNFNLTEIPEAQIHEGFQELLHTLNQPDSQLQLTTGNGLFLSEGLKLVDKFLEDVKKLYHSEAFTVNFGDTEEAKKQINDYVEKGTQGKIVDLVKELDRDTVFALVNYIFFKGKWERPFEVKDTEEEDFHVDQVTTVKVPMMKRLGMFNIQHCKKLSSWVLLMKYLGNATAIFFLPDEGKLQHLENELTHDIITKFLENEDRRSASLHLPKLSITGTYDLKSVLGQLGITKVFSNGADLSGVTEEAPLKLSKAVHKAVLTIDEKGTEAAGAMFLEAINMSIPPEVKFNKPFVFLMIDQNTKSPLFMGKVVNPTQKFPTIPLSRLFDNAMLRAHRLNQLAFDTYQEFEEAYIPKEQKYSFLQNPQTSLCPSESIPTPSNKEETQQKSNLELLRISLLLIQSWLEPVQFLRSVFANSLVYGASDSNVYDLLKDLEEKIQTLMGRLEDGSPRTGQIFKQTYSKFDTNSHNDDALLKNYGLLYCFNKDMSKVSTYLRIVQCRSVEGSCGF
notes: also called hGHRA-NexP
For B7, the Relative inhibitory potency in assay [1] was 17.7 relative to Pegvisomant. In assay [2], the Relative binding potency was 6.08 relative to Pegvisomant.

B8: hGH-A11 (ligand)
chain: EDPQGDAANKTDTSHHDQDHPTFNKITPNLAEFAFSLYRQLAHQSNSTNIFFSPVSIATAFAMLSLGTKADTHDEILEGLNFNLTEIPEAQIHEGFQELLHTLNQPDSQLQLTTGNGLFLSEGLKLVDKFLEDVKKLYHSEAFTVNFGDTEEAKKQINDYVEKGTQGKIVDLVKELDRDTVFALVNYIFFKGKWERPFEVKDTEEEDFHVDQVTTVKVPMMKRLGMFNIQHCKKLSSWVLLMKYLGNATAIFFLPDEGKLQHLENELTHDIITKFLENEDRRSASLHLPKLSITGTYDLKSVLGQLGITKVFSNGADLSGVTEEAPLKLSKAVHKAVLTIDEKGTEAAGAMFLEAINMSIPPEVKFNKPFVFLMIDQNTKSPLFMGKVVNPTQKFPTIPLSRLFDNAMLRADRLNQLAFDTYQEFEEAYIPKEQKYSFLKNPQTSLCFSESIPTPSNREETQQKSNLELLRISLLLIQSWLEPVQFLRSVFANSLVYGASDSNVYDLLKDLEEKIQTLMGRLEDGSPRTGQIFKQTYSKFDTNSHNDDALLKNYGLLYCFRKDMDKVSTFLRTVQCRSVEGSCGF
notes: also called hGHRA-NexP
As for B8, in assay [1], the Relative inhibitory potency is 17.3 relative to Pegvisomant. Further, the Relative binding potency in assay [2] is 9.95 relative to Pegvisomant.

Source of the values: US11981719 (ALTEOGEN, dated 2024).
